Source: doi:10.1101/695700

Biological target: complement C3
Test: SPR

Kd: 360 nM
B1: recombinant HC1 (rHC1), wild type; heavy chain 1 of inter-α-inhibitor (natural protein)
chain: SKSSEKRQAVDTAVDGVFIRSLKVNCKVTSRFAHYVVTSQVVNTANEAREVAFDLEIPKTAFISDFAVTADGNAFIGDIKDKVTAWKQYRKAAISGENAGLVRASGRTMEQFTIHLTVNPQSKVTFQLTYEEVLKRNHMQYEIVIKVKPKQLVHHFEIDVDIFEPQGISKLDAQASFLPKELAAQTIKKSFSGKKGHVLFRPTVSQQQSCPTCSTSLLNGHFKVTYDVSRDKICDLLVANNHFAHFFAPQNLTNMNKNVVFVIDISGSMRGQKVKQTKEALLKILGDMQPGDYFDLVLFGTRVQSWKGSLVQASEANLQAAQDFVRGFSLDEATNLNGGLLRGIEILNQVQESLPELSNHASILIMLTDGDPTEGVTDRSQILKNVRNAIRGRFPLYNLGFGHNVDFNFLEVMSMENNGRAQRIYEDHDATQQLQGFYSQVAKPLLVDVDLQYPQDAVLALTQNHHKQYYEGSEIVVAGRIADNKQSSFKADVQAHGEGQEFSITCLVDEEEMKKLLRERGHMLENHVERLWAYLTIQELLAKRMKVDREERANLSSQALQMSLDYGFVTPLTSMSIRGMADQDGLKPTIDKPSEDSPPLEMLGPRRTFVLSALQPSPTHSSSNTQRLPDRVTGVDTD
